The sequences below were run on Escherichia coli TOP10 (assay: shrunken log2 fold change of peptide-encoding DNA abundance (4.5 h post-induction vs induction); higher = less antimicrobial activity (less host growth inhibition)). Conditions: time post-induction: 4.5 h; library: site-saturation at positions 5, 18, 19, 20.
RRIRSRPPRLPRPRPRPNGIPRP was tested, and the “shrunken log2 fold change” value was 0.033.
With RRIRQRPPRLPRPRPRPRCSPRP the “shrunken log2 fold change” value was -0.232.
In the case of RRIRFRPPRLPRPRPRPVMGPRP, the “shrunken log2 fold change” value is reported as 0.368.
In the case of RRIRPRPPRLPRPRPRPQHQPRP, the “shrunken log2 fold change” value is reported as -0.226.
In the case of RRIRARPPRLPRPRPRPESFPRP, the “shrunken log2 fold change” value is reported as 0.807.
With RRIRHRPPRLPRPRPRPTSIPRP the “shrunken log2 fold change” value was 0.0484.
In the case of RRIRRRPPRLPRPRPRPSLDPRP, the “shrunken log2 fold change” value is reported as 0.34.
With RRIRNRPPRLPRPRPRPVIEPRP the “shrunken log2 fold change” value was -0.0754.
For RRIRIRPPRLPRPRPRPNSFPRP, the “shrunken log2 fold change” value was -0.391.
RRIRNRPPRLPRPRPRPGSSPRP was tested, and the “shrunken log2 fold change” value was 0.0992.
With RRIRKRPPRLPRPRPRPSKAPRP the “shrunken log2 fold change” value was -0.0406.
In the case of RRIRFRPPRLPRPRPRPEHNPRP, the “shrunken log2 fold change” value is reported as -0.489.
RRIRMRPPRLPRPRPRPPFWPRP was tested, and the “shrunken log2 fold change” value was 1.2.
RRIRWRPPRLPRPRPRPPGAPRP was tested, and the “shrunken log2 fold change” value was 0.904.
In the case of RRIRLRPPRLPRPRPRPPGSPRP, the “shrunken log2 fold change” value is reported as 0.226.
With RRIRWRPPRLPRPRPRPICGPRP the “shrunken log2 fold change” value was 0.0975.
With RRIRSRPPRLPRPRPRPPVGPRP the “shrunken log2 fold change” value was 0.457.
With RRIRGRPPRLPRPRPRPYLNPRP the “shrunken log2 fold change” value was -0.233.
RRIRMRPPRLPRPRPRPNQEPRP was tested, and the “shrunken log2 fold change” value was -0.0314.
In the case of RRIRERPPRLPRPRPRPIYGPRP, the “shrunken log2 fold change” value is reported as 0.0231.
In the case of RRIRLRPPRLPRPRPRPDWAPRP, the “shrunken log2 fold change” value is reported as 0.0283.
In the case of RRIRQRPPRLPRPRPRPNLWPRP, the “shrunken log2 fold change” value is reported as -0.0933.
For RRIRFRPPRLPRPRPRPPLIPRP, the “shrunken log2 fold change” value was -0.182.
For RRIRQRPPRLPRPRPRPVWQPRP, the “shrunken log2 fold change” value was 0.232.
RRIRRRPPRLPRPRPRPSVWPRP was tested, and the “shrunken log2 fold change” value was 0.703.
For RRIRNRPPRLPRPRPRPLLVPRP, the “shrunken log2 fold change” value was -0.199.
RRIRWRPPRLPRPRPRPRSSPRP was tested, and the “shrunken log2 fold change” value was 0.246.
RRIRNRPPRLPRPRPRPPFVPRP was tested, and the “shrunken log2 fold change” value was 0.164.
With RRIRTRPPRLPRPRPRPNSCPRP the “shrunken log2 fold change” value was 0.0686.
For RRIRLRPPRLPRPRPRPTVSPRP, the “shrunken log2 fold change” value was 0.0646.
For RRIRYRPPRLPRPRPRPYKEPRP, the “shrunken log2 fold change” value was 0.043.
With RRIRERPPRLPRPRPRPQKCPRP the “shrunken log2 fold change” value was -0.202.
For RRIRHRPPRLPRPRPRPCPHPRP, the “shrunken log2 fold change” value was -0.0102.
For RRIRERPPRLPRPRPRPPRNPRP, the “shrunken log2 fold change” value was 0.0296.
In the case of RRIRMRPPRLPRPRPRPARVPRP, the “shrunken log2 fold change” value is reported as 1.28.
For RRIRQRPPRLPRPRPRPNSDPRP, the “shrunken log2 fold change” value was -0.594.
RRIRDRPPRLPRPRPRPHVTPRP was tested, and the “shrunken log2 fold change” value was -0.631.
With RRIRERPPRLPRPRPRPKEFPRP the “shrunken log2 fold change” value was -0.11.
RRIRSRPPRLPRPRPRPQNPPRP was tested, and the “shrunken log2 fold change” value was -0.296.
In the case of RRIRFRPPRLPRPRPRPEHVPRP, the “shrunken log2 fold change” value is reported as -0.0205.
RRIRRRPPRLPRPRPRPQFKPRP was tested, and the “shrunken log2 fold change” value was -0.145.
RRIRTRPPRLPRPRPRPHMRPRP was tested, and the “shrunken log2 fold change” value was 0.161.
In the case of RRIRNRPPRLPRPRPRPWMPPRP, the “shrunken log2 fold change” value is reported as -0.105.
In the case of RRIRPRPPRLPRPRPRPGPWPRP, the “shrunken log2 fold change” value is reported as 0.0326.
With RRIRTRPPRLPRPRPRPGRQPRP the “shrunken log2 fold change” value was 0.0723.
RRIRQRPPRLPRPRPRPIFCPRP was tested, and the “shrunken log2 fold change” value was 0.276.
For RRIRRRPPRLPRPRPRPLWLPRP, the “shrunken log2 fold change” value was -0.107.
For RRIRKRPPRLPRPRPRPQTNPRP, the “shrunken log2 fold change” value was 0.271.
With RRIRWRPPRLPRPRPRPMGDPRP the “shrunken log2 fold change” value was 0.676.
RRIRQRPPRLPRPRPRPSQGPRP was tested, and the “shrunken log2 fold change” value was 4.77e-05.
With RRIRARPPRLPRPRPRPVLKPRP the “shrunken log2 fold change” value was 0.22.
With RRIRSRPPRLPRPRPRPCPYPRP the “shrunken log2 fold change” value was 0.0125.
RRIRCRPPRLPRPRPRPSQNPRP was tested, and the “shrunken log2 fold change” value was -0.141.
RRIRMRPPRLPRPRPRPQVWPRP was tested, and the “shrunken log2 fold change” value was 0.399.
In the case of RRIRCRPPRLPRPRPRPKVDPRP, the “shrunken log2 fold change” value is reported as 0.0328.
For RRIRCRPPRLPRPRPRPSMGPRP, the “shrunken log2 fold change” value was -0.169.
RRIRQRPPRLPRPRPRPFLAPRP was tested, and the “shrunken log2 fold change” value was 0.286.
In the case of RRIRERPPRLPRPRPRPIVTPRP, the “shrunken log2 fold change” value is reported as -0.158.
In the case of RRIRIRPPRLPRPRPRPKTRPRP, the “shrunken log2 fold change” value is reported as -0.117.
With RRIRDRPPRLPRPRPRPCRAPRP the “shrunken log2 fold change” value was -0.221.

— the supplement of paper PMC9112550, “Optimization of the antimicrobial peptide Bac7 by deep mutational scanning” (BMC Biology, 2022)
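Further: peptides expressed intracellularly from a pBAD plasmid library in pooled LB shake-flask culture, induced with 0.3% L-arabinose, DNA abundance read by NGS, three biological replicates, DESeq2 with apeglm shrinkage.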
